For the test, the target named is PARP (Cricetulus griseus, UniProt Q9R152). Put plainly: PARP inhibition in transfected CHO dhfr- cells, 3H-NAD incorporation. To be noted: H2O2 0.06%; cells co-expressing LTRPC2 and PARP-1 dominant negative mutant versus LTRPC2 alone.
PARP, sequence (Q9R152 2-1013): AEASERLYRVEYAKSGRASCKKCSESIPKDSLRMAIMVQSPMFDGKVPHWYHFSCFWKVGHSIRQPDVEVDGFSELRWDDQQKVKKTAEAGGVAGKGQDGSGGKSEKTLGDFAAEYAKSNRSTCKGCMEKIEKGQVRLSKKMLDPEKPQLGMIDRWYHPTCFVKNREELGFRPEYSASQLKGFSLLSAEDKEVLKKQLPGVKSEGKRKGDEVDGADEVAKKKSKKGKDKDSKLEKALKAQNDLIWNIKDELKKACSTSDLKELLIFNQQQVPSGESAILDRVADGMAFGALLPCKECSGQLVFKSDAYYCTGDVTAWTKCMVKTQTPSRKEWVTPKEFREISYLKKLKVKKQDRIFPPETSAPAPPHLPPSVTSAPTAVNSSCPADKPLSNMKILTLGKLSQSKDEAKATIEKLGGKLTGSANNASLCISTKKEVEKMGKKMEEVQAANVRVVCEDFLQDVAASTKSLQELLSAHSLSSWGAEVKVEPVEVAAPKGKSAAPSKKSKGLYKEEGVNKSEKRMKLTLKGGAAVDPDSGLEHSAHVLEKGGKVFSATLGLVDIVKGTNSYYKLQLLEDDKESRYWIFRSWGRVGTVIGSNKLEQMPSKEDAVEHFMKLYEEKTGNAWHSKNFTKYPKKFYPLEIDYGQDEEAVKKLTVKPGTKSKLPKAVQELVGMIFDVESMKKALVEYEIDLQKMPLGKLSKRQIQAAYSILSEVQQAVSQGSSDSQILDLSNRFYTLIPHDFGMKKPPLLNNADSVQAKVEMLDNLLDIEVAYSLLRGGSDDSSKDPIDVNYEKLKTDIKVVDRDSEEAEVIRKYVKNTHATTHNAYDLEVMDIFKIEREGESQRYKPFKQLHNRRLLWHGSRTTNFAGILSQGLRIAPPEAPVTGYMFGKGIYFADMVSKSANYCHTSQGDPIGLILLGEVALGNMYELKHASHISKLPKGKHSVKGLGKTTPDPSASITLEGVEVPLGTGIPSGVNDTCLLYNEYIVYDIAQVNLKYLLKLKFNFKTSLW

“PARP-1 dominant negative mutant: human PARP-1 DNA binding region (positions 1 to 374), amino acid sequence SEQ ID NO:20, co-expressed in cells”: the “3H radioactivity in comparison with the control cells” value is 67%.

Values taken from patent US7097990B2, “Method of screening cell death inhibitor” (Astellas Pharma Inc., priority 2001, dated 2006).
